Measured values as given in EP4814000A1.

What was measured:
003m-P215S-1×GCN4t (RSV) [1] = assay: flow cytometry, Expi293F cells, Lipofectamine 2000-mRNA; row 003M-P215S-1×GCNt (ORIG)
003m-P215S-1×GCN4t (RSV) [2] = assay: flow cytometry, Expi293F cells, Lipofectamine 2000-mRNA; row 003m-P215S-1×GCN4t-opti5
[3] = target: wild-type RSV B F (RSV B); assay: flow cytometry, Expi293F cells, Lipofectamine 2000-mRNA; row WT-RQ1
003m-P215S-1×GCN4t (RSV) [4] = assay: flow cytometry, Expi293F cells, Lipofectamine 2000-mRNA; row 003m-P215S-1×GCN4t-opti1
003m-P215S-1×GCN4t (RSV) [5] = assay: flow cytometry, Expi293F cells, Lipofectamine 2000-mRNA; row 003M-P215S-1×GCN4t (ORIG)
[6] = target: RSV B-003m-P215S-1×GCN4t-G46S (RSV B); assay: flow cytometry, Expi293F cells, Lipofectamine 2000-mRNA; mRNA RQ2
[7] = target: RSV B-003m-P215S-1×GCN4t-D92E (RSV B); assay: as above
[8] = target: RSV B-003m-P215S-1×GCN4t (RSV B); assay: as above
[9] = target: RSV B-003m-P215S-1×GCN4t-C486D-C489D (RSV B); assay: as above
[10] = target: RSV B-003m-P215S-1×GCN4t-F190S (RSV B); assay: as above
[11] = target: RSV B-003m-P215S-1×GCN4t-C155S-C290S (RSV B); assay: as above
[12] = target: RSV B-003m-P215S-1×GCN4t-C102A-C362S (RSV B); assay: as above
RSV B-003m-P215S (RSV B) = assay: as above
[13] = target: RSV B-003m-P215S-1×GCN4t-ori_linker (RSV B); assay: as above
003m-P215S-1×GCN4t (RSV) [14] = assay: flow cytometry, Expi293F cells, Lipofectamine 2000-mRNA; row 003m-P215S-1×GCN4t
003m-P215S-2×GCN4t (RSV) = assay: flow cytometry, Expi293F cells, Lipofectamine 2000-mRNA
003m-P215S (RSV) = assay: as above
003m-P215S-1×GCN4t-2N = assay: as above
[15] = target: 003m-P215S-1×Fibritin (RSV); assay: as above

| Substance | MFI (003m-P215S-1×GCN4t (RSV) [1]) | MFI (003m-P215S-1×GCN4t (RSV) [2]) | MFI [3] | MFI (003m-P215S-1×GCN4t (RSV) [4]) | MFI (003m-P215S-1×GCN4t (RSV) [5]) | MFI [6] | MFI [7] | MFI [8] | MFI [9] | MFI [10] | MFI [11] | MFI [12] | MFI (RSV B-003m-P215S (RSV B)) | MFI [13] | MFI (003m-P215S-1×GCN4t (RSV) [14]) | MFI (003m-P215S-2×GCN4t (RSV)) | MFI (003m-P215S (RSV)) | MFI (003m-P215S-1×GCN4t-2N) | MFI [15] |
| --- | --- | --- | --- | --- | --- | --- | --- | --- | --- | --- | --- | --- | --- | --- | --- | --- | --- | --- | --- |
| D25-AF488 (antibody) | 3840 | 4620 | 132000 | 5680 | 3840 | 4110 | 2480 | 7110 | 8130 | 13100 | 67300 | 15700 | 379000 | 556 | 54200 | 5120 | 270000 | 54000 | 23000 |
| AM14-AF488 (antibody) | 2560 | 2980 | 201000 | 3380 | 2560 | 3670 | 792 | 5300 | 8080 | 11300 | 36300 | 3940 | 521000 | 286 | 30100 | 2680 | 338000 | 28800 | 22300 |
